This note sets out measurements from IntAct's records for PubMed 21664272.

The test deals with T1, rasa1_human RASA1 (UniProt P20936).
T1 sequence: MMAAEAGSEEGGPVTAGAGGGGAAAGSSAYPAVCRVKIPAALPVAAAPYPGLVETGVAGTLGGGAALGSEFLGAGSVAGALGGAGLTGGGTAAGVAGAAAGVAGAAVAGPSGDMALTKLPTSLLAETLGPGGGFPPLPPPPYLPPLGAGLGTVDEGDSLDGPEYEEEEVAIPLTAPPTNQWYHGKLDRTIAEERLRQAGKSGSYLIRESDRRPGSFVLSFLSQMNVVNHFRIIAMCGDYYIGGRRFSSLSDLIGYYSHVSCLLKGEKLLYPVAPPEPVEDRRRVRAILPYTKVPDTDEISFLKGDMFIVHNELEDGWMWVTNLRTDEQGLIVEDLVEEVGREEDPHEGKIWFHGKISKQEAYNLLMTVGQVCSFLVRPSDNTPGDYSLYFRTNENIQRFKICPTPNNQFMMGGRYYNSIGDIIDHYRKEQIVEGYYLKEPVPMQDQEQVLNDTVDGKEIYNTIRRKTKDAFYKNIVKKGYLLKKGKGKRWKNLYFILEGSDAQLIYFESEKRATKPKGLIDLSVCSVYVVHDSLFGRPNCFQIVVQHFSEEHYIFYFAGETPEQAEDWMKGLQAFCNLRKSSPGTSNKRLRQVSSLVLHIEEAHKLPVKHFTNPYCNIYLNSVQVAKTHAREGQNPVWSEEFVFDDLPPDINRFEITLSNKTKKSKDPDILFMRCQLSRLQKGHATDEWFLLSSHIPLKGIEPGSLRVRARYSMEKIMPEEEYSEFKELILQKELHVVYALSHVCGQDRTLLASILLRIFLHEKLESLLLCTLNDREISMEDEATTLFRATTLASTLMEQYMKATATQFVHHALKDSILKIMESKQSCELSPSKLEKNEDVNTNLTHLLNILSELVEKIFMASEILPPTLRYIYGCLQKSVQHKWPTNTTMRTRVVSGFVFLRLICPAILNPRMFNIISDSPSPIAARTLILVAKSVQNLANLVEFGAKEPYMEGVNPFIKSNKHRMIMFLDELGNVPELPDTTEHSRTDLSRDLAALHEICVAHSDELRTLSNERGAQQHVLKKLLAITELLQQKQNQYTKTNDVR
Regarding “SH2/SH3 adapter protein NCK1 (Homo sapiens) (from UniProt P16333) W38K”, the “effect of a mutation on the interaction” value is recorded as “decreasing interaction”.
Under “SH2/SH3 adapter protein NCK1 (Homo sapiens) (from UniProt P16333) W38K;W39K;W143K;W229K” stands “decreasing interaction”; under “SH2/SH3 adapter protein NCK1 (Homo sapiens) (from UniProt P16333) W38K;W143K;W229K;R308K”, “decreasing interaction”; under “SH2/SH3 adapter protein NCK1 (Homo sapiens) (from UniProt P16333) W38K;W229K;R308K”, “disrupting interaction”.
To “SH2/SH3 adapter protein NCK1 (Homo sapiens) (from UniProt P16333) W143K;W229K;R308K” belongs “decreasing interaction”.
Under “SH2/SH3 adapter protein NCK1 (Homo sapiens) (from UniProt P16333) W229K” stands “decreasing interaction”.
